Test results reported in patent US20230034768A1 (BIOSION, published 2023).
Where two headings read alike, the source gives them in different places.

T1: Recombinant human RANKL-his protein (R&D, Cat #6449-TEC-010) (human, UniProt O14788 140-317, limits assumed)
T1 sequence (looked up): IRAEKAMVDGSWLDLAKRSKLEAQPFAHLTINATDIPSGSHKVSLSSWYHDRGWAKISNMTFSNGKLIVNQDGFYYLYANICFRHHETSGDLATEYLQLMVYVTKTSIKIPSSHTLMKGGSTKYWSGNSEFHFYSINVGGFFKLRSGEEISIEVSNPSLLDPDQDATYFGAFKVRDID

T2: human RANKL-his protein (prepared in-house with SEQ ID NO: 43) (human, UniProt O14788 136-317)
T2 construct: also called recombinant human RANKL-his
T2 chain: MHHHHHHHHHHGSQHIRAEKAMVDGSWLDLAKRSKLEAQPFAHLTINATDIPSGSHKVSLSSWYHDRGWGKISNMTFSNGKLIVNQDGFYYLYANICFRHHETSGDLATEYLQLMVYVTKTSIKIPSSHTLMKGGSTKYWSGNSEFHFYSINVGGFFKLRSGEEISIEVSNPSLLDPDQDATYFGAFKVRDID

T3: cynomolgus monkey RANKL-his protein (prepared in-house with SEQ ID NO.:42) (cynomolgus monkey, UniProt O14788 136-317 (human entry), limits assumed)
T3 construct: also called Cynomolgus RANKL
T3 chain: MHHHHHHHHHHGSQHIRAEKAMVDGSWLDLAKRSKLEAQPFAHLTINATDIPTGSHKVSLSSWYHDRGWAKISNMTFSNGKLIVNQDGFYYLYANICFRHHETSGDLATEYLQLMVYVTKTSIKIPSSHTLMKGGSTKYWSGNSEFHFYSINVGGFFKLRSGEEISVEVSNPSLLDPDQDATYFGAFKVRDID


Columns and labels:
[1] = target: T1, Recombinant human RANKL-his protein …; assay: cell-based or functional assay
[2] = target: T1, Recombinant human RANKL-his protein …; assay: cell-based or functional assay; remark: listed apart in the source
[3] = target: T2, human RANKL-his protein (prepared …); assay: Octet BLI, antibody captured, human RANKL-his in solution (same value as Table 2)
Protocol: (§1) Briefly, AHC/AMC biosensors (anti-human/anti-mouse IgG Fc capture, ForteBio) were presoaked with 10 mM glycine (pH 1.5) for 3 seconds, and then dipped in a well with running buffer (0.5% w/v BSA in PBST) for 3 seconds, the soaking and dipping steps were repeated for three times. […] A new baseline was run for 180 seconds in another well with HBS-EP⁺. […] Finally, sensors were presoaked with 10 mM glycine (pH 1.5) for 3 seconds, and then dipped in a well with running buffer for 3 seconds, the soaking and dipping steps repeated for three times. The association and dissociation curves were fit to a 1:1 Langmuir binding model using Octet evaluation software.

[4] = target: T4, biotin-labeled human RANKL-Fc protein (prepared in house, SEQ ID NO.: 40) (human, biotin-labeled (sites not given)); assay: capture ELISA: captured antibody, biotin-labeled human RANKL-Fc, OD(450-630)
T4 construct: also called RANKL-Fc-biotin
Protocol: (§2) Plates were washed once with wash buffer (PBS+0.05% v/v Tween-20, PBST) and then blocked with 200 μl/well blocking buffer (5% w/v non-fatty milk in PBST) for 2 hours at 37° C. […] After a final wash, plates were incubated with 100 μl/well ELISA substrate TMB (Innoreagents, Cat #TMB-S-002) at room temperature. The reaction was stopped in 3-10 minutes with 50 μl/well 1M H₂SO₄, and the absorbance of each well was read on a microplate reader using dual wavelengths mode with 450 nm for TMB and 630 nm as the reference wavelength. The OD (450-630) values were plotted against antibody concentration. Data were analyzed using Graphpad Prism software and EC₅₀ values were reported.
For the capture ELISA, 96-well micro plates were coated with 2 μg/ml goat anti-human IgG (AffiniPure Goat Anti-Human IgG, F(ab′)₂ fragment specific, Jackson Immunoresearch, Cat #109-005-097) instead of AffiniPure Goat Anti-Mouse IgG, Fcγ fragment specific, 100 μl/well.

[5] = target: T4, biotin-labeled human RANKL-Fc protein …; assay: as above; remark: listed apart in the source
Protocol: as §2

[6] = target: T4, biotin-labeled human RANKL-Fc protein …; assay: as above; remark: listed apart in the source
Protocol: as §2
(§3) Cell supernatants were harvested after six days in shaking flasks, spun down to pellet cells, and then chimeric antibodies were purified from cell supernatants as described above. The purified antibodies were tested in the capture ELISA, competitive ELISA assay and Octet affinity test following the protocols in the foregoing Examples.

[7] = target: T2, human RANKL-his protein (prepared …); assay: Octet BLI, antibody captured on AHC/AMC sensor, human RANKL-his in solution, 1:1 fit
Protocol: as §1

[8] = target: T4, biotin-labeled human RANKL-Fc protein …; assay: competitive ELISA: antibody blocks biotin-labeled human RANKL-Fc binding to coated human RANK-Fc
Protocol: (§4) Briefly, human RANK-Fc proteins (prepared in house, SEQ ID NO.: 41) were coated on 96-well micro plates at 2.0 μg/mL in PBS, 100 μl/well, and incubated overnight at 4° C. The next day, plates were washed with wash buffer (PBS+0.05% w/v Tween-20, PBST), and blocked with 5% w/v non-fatty milk in PBST, 200 μl/well, for 2 hours at 37° C.
(§5) Plates were washed 4 times using wash buffer, and added and incubated with 100 μl/well of streptavidin conjugated HRP (1:10000 dilution in PBST buffer, Jackson ImmunoResearch Laboratories, Inc., Cat #016-030-084) for 40 minutes at 37° C. Plates were washed again using wash buffer. Finally, TMB was added and the reaction was stopped using 1M H₂SO₄, and the absorbance of each well was read on a microplate reader using dual wavelengths mode with 450 nm for TMB and 630 nm as the reference wavelength. The OD (450-630) values were plotted against antibody concentration. Data were analyzed using Graphpad Prism software and IC₅₀ values were reported.

[9] = target: T4, biotin-labeled human RANKL-Fc protein …; assay: as above; remark: listed apart in the source
Protocol: as §4, §5

[10] = target: T4, biotin-labeled human RANKL-Fc protein …; assay: competitive ELISA: antibody blocks biotin-labeled human RANKL-Fc binding to coated benchmark denosumab
Protocol: The next day, plates were washed with wash buffer, and blocked with 5% w/v non-fatty milk in PBST, 200 μl/well, for 2 hours at 37° C. […] After incubation at 37° C. for 40 minutes, plates were washed 4 times using wash buffer. Then the plates were added and incubated with 100 μl Peroxidase Streptavidin (1:5000 dilution in PBST buffer, Jackson Immunoresearch, Cat #016-030-084) for 40 minutes at 37° C. Plates were washed again using wash buffer. Finally, TMB was added and the reaction was stopped using 1M H₂SO₄. The absorbance of each well was read on a microplate reader using dual wavelengths mode with 450 nm for TMB and 630 nm as the reference wavelength, and the OD (450-630) values were plotted against antibody concentration. Data were analyzed using Graphpad Prism software and IC₅₀ values were reported.

[11] = target: T4, biotin-labeled human RANKL-Fc protein …; assay: as above; remark: listed apart in the source
[12] = target: T1, Recombinant human RANKL-his protein …; assay: cell-based or functional assay; remark: listed apart in the source
[13] = target: T2, human RANKL-his protein (prepared …); assay: Octet BLI, antibody captured, human RANKL-his in solution
Protocol: as §1, §3

[14] = target: T2, human RANKL-his protein (prepared …); assay: Octet BLI, chimeric antibody at 5 ug/ml captured, human RANKL-his in solution
Protocol: as §1
The chimeric antibody when tested was in HBS-EP⁺ at 5 μg/ml concentration.

[15] = target: T2, human RANKL-his protein (prepared …); assay: Biacore T200 SPR, antibody captured by anti-human IgG, human RANKL-his in flow, 1:1 fit
Protocol: (§6) Briefly, goat anti-human IgG (GE healthcare, Cat #BR100839, Human Antibody Capture Kit) was covalently linked to a CM5 chip (carboxy methyl dextran coated chip from GE healthcare #BR10030) via primary amines, using a standard amine coupling kit provided by Biacore. Un-reacted moieties on the biosensor surface were blocked with ethanolamine. […] The antigen-antibody association kinetics was followed for 2 minutes and the dissociation kinetics was followed for 10 minutes. The association and dissociation curves were fit to a 1:1 Langmuir binding model using BIAcore evaluation software.

[16] = target: T3, cynomolgus monkey RANKL-his protein …; assay: Biacore T200 SPR, antibody captured by anti-human IgG, cynomolgus RANKL-his in flow, 1:1 fit
Protocol: as §6

[17] = target: T4, biotin-labeled human RANKL-Fc protein …; assay: competitive ELISA: antibody blocks biotin-labeled human RANKL-Fc binding to coated human RANK-Fc; remark: listed apart in the source
[18] = target: T4, biotin-labeled human RANKL-Fc protein …; assay: competitive ELISA: antibody blocks biotin-labeled human RANKL-Fc binding to coated benchmark denosumab; remark: listed apart in the source
[19] = target: T1, Recombinant human RANKL-his protein …; assay: cell-based or functional assay; remark: listed apart in the source

| Binder | IC50, RANKL-induced osteoclast differentiation of RAW264.7 cells (pNPP, OD405) [1] [nM] | IC50, RANKL-induced osteoclast differentiation of RAW264.7 cells (pNPP, OD405) [2] [nM] | Kd [3] [nM] | EC50 [4] [nM] | EC50 [5] [nM] | EC50 [6] [nM] | Kd [7] [nM] | koff [7] [s⁻¹] | kon [7] [M⁻¹ s⁻¹] | IC50 [8] [nM] | IC50 [9] [nM] | IC50 [10] [nM] | IC50 [11] [nM] | other results |
| --- | --- | --- | --- | --- | --- | --- | --- | --- | --- | --- | --- | --- | --- | --- |
| mouse anti-RANKL monoclonal antibody B3D8 (antibody, V domains shown, Hybridoma-derived mouse IgG; also called Mouse B3D8) VH: EVQLVESGGDLVKSGGSLKLSCAASGFTFSRYGMSWVRQTPDKRLEWVASISSGGTYTSYPDSVKGRFTITRDSAKNTLYLQMSSLKSEDTAMYYCARRNFITSATDCYFDVWGAGTTVTVSS VL: DTVLTQSPATLSVTPGASVSLSCRASQSISNNLHWYQQKSHESPRLLIIYASQSISGIPSRFSGSGSGTDFTLSINSVETEDFGVYFCQQSNSWPFTFGGGTKLEIK | 0.625 |  | 0.452 |  | 0.162 | 0.489 | 0.452 | 0.000277 | 613000 |  | 0.233 | 0.548 |  |  |
| mouse anti-RANKL monoclonal antibody B1A8 (antibody, V domains shown, Hybridoma-derived mouse IgG; also called Mouse B1A8) VH: EVQLVESGGDLVKPGGSLKLSCAASGFTFSRYGMSWVRQTPDKRLEWVASISSGGTYTSYPDSVQGRFTITRDSAKNTLYLQMSSLKSEDTAMYYCARRNFITSATDCYFDVWGAGTTVTVSS VL: DTVLTQSPATLSVTPGASVSLSCRASQSISNNLHWYQQKSHESPRLLIIYASQSISGIPSRFSGSGSGTDFTLSINSVETEDFGVYFCQQSNSWPFTFGGGTKLEIK |  |  | 0.386 |  | 0.397 | 0.493 | 0.386 | 0.000236 | 611000 |  | 0.26 | 0.498 |  | IC50, RANKL-induced osteoclast differentiation of RAW264.7 cells (pNPP, OD405) [19]: 0.967 nM |

Further binders by falling EC50 [6], results first:

| IC50, RANKL-induced osteoclast differentiation of RAW264.7 cells (pNPP, OD405) [1] [nM] | IC50, RANKL-induced osteoclast differentiation of RAW264.7 cells (pNPP, OD405) [2] [nM] | Kd [3] [nM] | EC50 [4] [nM] | EC50 [5] [nM] | EC50 [6] [nM] | Kd [7] [nM] | koff [7] [s⁻¹] | kon [7] [M⁻¹ s⁻¹] | IC50 [8] [nM] | IC50 [9] [nM] | IC50 [10] [nM] | IC50 [11] [nM] | Binder | other results |
| --- | --- | --- | --- | --- | --- | --- | --- | --- | --- | --- | --- | --- | --- | --- |
| 0.839 | 3.41 | 0.0718 | 0.632 | 0.0826 | 1.11 | 0.0718 | 7.9e-05 | 1.1e+06 | 0.414 | 0.0802 | 0.391 | 1.28 | mouse anti-RANKL monoclonal antibody D1A1 (antibody, V domains shown, Hybridoma-derived mouse IgG purified on Protein A; also called Mouse D1A1) VH: EVQLVESGGGLVKSGGSLKLSCAASGFTFRNYAMSWVRQTPEKRLEWVAGISSGGTYTYYPDTVKGRFTISRDNARNTLFLQMSSLRSEDTAMYYCARRDYGDVYEWYFDVWGTGTTVTVSS VL: DIVMTQSHKFMSTSVGDRVSITCKASQDVRTSIAWYQQKPGQSPNLLIYSASYRYTGVPDRFTGSGSGTDFTFTISSVQAEDLAVYYCQQHYSSPWTFGGGTKLEIK |  |
|  | 1.39 |  | 0.257 |  | 0.624 |  |  |  | 0.155 |  |  | 0.441 | Chimeric D1A1 (antibody, human IgG2, kappa, V domains shown, Mouse variable regions on human IgG2 / kappa; also called chimeric antibody D1A1; chimeric D1A1 antibody) VH: EVQLVESGGGLVKSGGSLKLSCAASGFTFRNYAMSWVRQTPEKRLEWVAGISSGGTYTYYPDTVKGRFTISRDNARNTLFLQMSSLRSEDTAMYYCARRDYGDVYEWYFDVWGTGTTVTVSS VL: DIVMTQSHKFMSTSVGDRVSITCKASQDVRTSIAWYQQKPGQSPNLLIYSASYRYTGVPDRFTGSGSGTDFTFTISSVQAEDLAVYYCQQHYSSPWTFGGGTKLEIKR | IC50, RANKL-induced osteoclast differentiation of RAW264.7 cells (pNPP, OD405) [12]: ~1.42 nM; Kd [13]: 0.197 nM; Kd [14]: < 0.001 nM; koff [14]: < 1e-07 s⁻¹; kon [14]: 128000 M⁻¹ s⁻¹; Kd [15]: 0.149 nM; Kd [16]: 0.42 nM; IC50 [17]: 0.112 nM; IC50 [18]: 0.473 nM |
